The results in this text go back to paper PMC3394726.

The test addresses chymotrypsin (bovine).

On to “scabies mite serpin SMSB3, wild type (from UniProt A0A131ZZL5 20-427) (natural protein)”, for which the stoichiometry of inhibition (SI) from residual chymotrypsin activity at a 2-120:1 molar excess of SMSB3 came out at 12.9.
